Measurements published in patent publication US20210388087A1 (Chugai, published 2021).
Where a chain is given by its changes, count along the chain named. Names may count otherwise.

T1: Human CD3eg linker (human)
T1 construct: single-chain construct; also called recombinant human CD3
T1 chain: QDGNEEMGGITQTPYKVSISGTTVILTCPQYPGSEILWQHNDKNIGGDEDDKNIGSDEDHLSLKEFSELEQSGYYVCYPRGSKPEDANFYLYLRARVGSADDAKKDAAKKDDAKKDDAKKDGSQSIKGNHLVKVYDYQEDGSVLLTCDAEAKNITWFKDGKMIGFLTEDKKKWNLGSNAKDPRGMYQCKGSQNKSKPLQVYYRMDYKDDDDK

B1: dBBDu183H A100fE/dBBDu072L (antibody, name in Kabat numbering, V domains shown)
VH: QVQLVESGGGLVQPGRSLRLSCAASGFTFSNAWMHWVRQAPGKGLEWVAQIKDKGNAYAAYYAPSVKGRFTISRDDSKNSIYLQMNSLKTEDTAVYYCHYVHYASASTVLPEFGVDAWGQGTTVTVSS
VL: DIVMTQSPLSLPVTPGEPASISCQASQELVHMNRNTYLHWYQQKPGQAPRLLIYKVSNRFPGVPDRFSGSGSGTDFTLKISRVEAEDVGVYYCAQGTSVPFTFGQGTKLEIK
B2: dBBDu183H A102Q/dBBDu072L (antibody, name in Kabat numbering, V domains shown)
VH: B1 VH with E112A, A117Q
VL: B1 VL
B3: dBBDu183H D101H/dBBDu072L (antibody, name in Kabat numbering, V domains shown)
VH: B1 VH with E112A, D116H
VL: B1 VL
B4: dBBDu183H A100fF/dBBDu072L (antibody, name in Kabat numbering, V domains shown)
VH: B1 VH with E112F
VL: B1 VL
B5: dBBDu183H D101K/dBBDu072L (antibody, name in Kabat numbering, V domains shown)
VH: B1 VH with E112A, D116K
VL: B1 VL
B6: dBBDu183H A100fR/dBBDu072L (antibody, name in Kabat numbering, V domains shown)
VH: B1 VH with E112R
VL: B1 VL
B7: dBBDu183H A100fV/dBBDu072L (antibody, name in Kabat numbering, V domains shown)
VH: B1 VH with E112V
VL: B1 VL
B8: dBBDu183H A102R/dBBDu072L (antibody, name in Kabat numbering, V domains shown)
VH: B1 VH with E112A, A117R
VL: B1 VL
B9: dBBDu183H F100gH/dBBDu072L (antibody, name in Kabat numbering, V domains shown)
VH: B1 VH with E112A, F113H
VL: B1 VL
B10: dBBDu183H F100gG/dBBDu072L (antibody, name in Kabat numbering, V domains shown)
VH: B1 VH with E112A, F113G
VL: B1 VL
B11: dBBDu183H D101E/dBBDu072L (antibody, name in Kabat numbering, V domains shown)
VH: B1 VH with E112A, D116E
VL: B1 VL
B12: dBBDu183H A100fH/dBBDu072L (antibody, name in Kabat numbering, V domains shown)
VH: B1 VH with E112H
VL: B1 VL
B13: dBBDu183H D101T/dBBDu072L (antibody, name in Kabat numbering, V domains shown)
VH: B1 VH with E112A, D116T
VL: B1 VL
B14: dBBDu183H A102V/dBBDu072L (antibody, name in Kabat numbering, V domains shown)
VH: B1 VH with E112A, A117V
VL: B1 VL
B15: dBBDu183H A100fT/dBBDu072L (antibody, name in Kabat numbering, V domains shown)
VH: B1 VH with E112T
VL: B1 VL
B16: dBBDu183H A102F/dBBDu072L (antibody, name in Kabat numbering, V domains shown)
VH: B1 VH with E112A, A117F
VL: B1 VL
B17: dBBDu183H A102D/dBBDu072L (antibody, name in Kabat numbering, V domains shown)
VH: B1 VH with E112A, A117D
VL: B1 VL
B18: dBBDu183H D101S/dBBDu072L (antibody, name in Kabat numbering, V domains shown)
VH: B1 VH with E112A, D116S
VL: B1 VL
B19: dBBDu183H D101F/dBBDu072L (antibody, name in Kabat numbering, V domains shown)
VH: B1 VH with E112A, D116F
VL: B1 VL
B20: dBBDu183H A102N/dBBDu072L (antibody, name in Kabat numbering, V domains shown)
VH: B1 VH with E112A, A117N
VL: B1 VL
B21: dBBDu183H A100fG/dBBDu072L (antibody, name in Kabat numbering, V domains shown)
VH: B1 VH with E112G
VL: B1 VL
B22: dBBDu183H A102H/dBBDu072L (antibody, name in Kabat numbering, V domains shown)
VH: B1 VH with E112A, A117H
VL: B1 VL
B23: dBBDu183H A100fQ/dBBDu072L (antibody, name in Kabat numbering, V domains shown)
VH: B1 VH with E112Q
VL: B1 VL
B24: dBBDu183H A100fN/dBBDu072L (antibody, name in Kabat numbering, V domains shown)
VH: B1 VH with E112N
VL: B1 VL
B25: dBBDu183H D101Q/dBBDu072L (antibody, name in Kabat numbering, V domains shown)
VH: B1 VH with E112A, D116Q
VL: B1 VL
B26: dBBDu183H D101W/dBBDu072L (antibody, name in Kabat numbering, V domains shown)
VH: B1 VH with E112A, D116W
VL: B1 VL
B27: dBBDu183H D101R/dBBDu072L (antibody, name in Kabat numbering, V domains shown)
VH: B1 VH with E112A, D116R
VL: B1 VL
B28: dBBDu183H A102E/dBBDu072L (antibody, name in Kabat numbering, V domains shown)
VH: B1 VH with E112A, A117E
VL: B1 VL
B29: dBBDu183H D101N/dBBDu072L (antibody, name in Kabat numbering, V domains shown)
VH: B1 VH with E112A, D116N
VL: B1 VL
B30: dBBDu183H F100gK/dBBDu072L (antibody, name in Kabat numbering, V domains shown)
VH: B1 VH with E112A, F113K
VL: B1 VL
B31: dBBDu183H D101Y/dBBDu072L (antibody, name in Kabat numbering, V domains shown)
VH: B1 VH with E112A, D116Y
VL: B1 VL
B32: dBBDu183H A100fK/dBBDu072L (antibody, name in Kabat numbering, V domains shown)
VH: B1 VH with E112K
VL: B1 VL
B33: dBBDu183H A100fY/dBBDu072L (antibody, name in Kabat numbering, V domains shown)
VH: B1 VH with E112Y
VL: B1 VL
B34: dBBDu183H A102G/dBBDu072L (antibody, name in Kabat numbering, V domains shown)
VH: B1 VH with E112A, A117G
VL: B1 VL
B35: dBBDu183H F100gE/dBBDu072L (antibody, name in Kabat numbering, V domains shown)
VH: B1 VH with E112A, F113E
VL: B1 VL
B36: dBBDu183H A100fS/dBBDu072L (antibody, name in Kabat numbering, V domains shown)
VH: B1 VH with E112S
VL: B1 VL
B37: dBBDu183H A102S/dBBDu072L (antibody, name in Kabat numbering, V domains shown)
VH: B1 VH with E112A, A117S
VL: B1 VL
B38: dBBDu183H F100gD/dBBDu072L (antibody, name in Kabat numbering, V domains shown)
VH: B1 VH with E112A, F113D
VL: B1 VL
B39: dBBDu183H D101V/dBBDu072L (antibody, name in Kabat numbering, V domains shown)
VH: B1 VH with E112A, D116V
VL: B1 VL
B40: dBBDu183H A102K/dBBDu072L (antibody, name in Kabat numbering, V domains shown)
VH: B1 VH with E112A, A117K
VL: B1 VL
B41: dBBDu183H A102Y/dBBDu072L (antibody, name in Kabat numbering, V domains shown)
VH: B1 VH with E112A, A117Y
VL: B1 VL
B42: dBBDu183H D101G/dBBDu072L (antibody, name in Kabat numbering, V domains shown)
VH: B1 VH with E112A, D116G
VL: B1 VL
B43: dBBDu183H A100fW/dBBDu072L (antibody, name in Kabat numbering, V domains shown)
VH: B1 VH with E112W
VL: B1 VL
B44: dBBDu183H A102W/dBBDu072L (antibody, name in Kabat numbering, V domains shown)
VH: B1 VH with E112A, A117W
VL: B1 VL
B45: dBBDu183H A102T/dBBDu072L (antibody, name in Kabat numbering, V domains shown)
VH: B1 VH with E112A, A117T
VL: B1 VL

Target: T1, Human CD3eg linker
Assay: SPR, vs unmutated H183/L072

Binder | fold change of affinity
B1 | 0.5 fold
B2 | 1.3 fold
B3 | 0.4 fold
B4 | 1.1 fold
B5 | 0 fold
B6 | 1.6 fold
B7 | 1 fold
B8 | 1 fold
B9 | 1.8 fold
B10 | 1.2 fold
B11 | 0 fold
B12 | 1.2 fold
B13 | 0.2 fold
B14 | 1 fold
B15 | 1.6 fold
B16 | 2 fold
B17 | 1.3 fold
B18 | 0.6 fold
B19 | 2.5 fold
B20 | 1.5 fold
B21 | 1.5 fold
B22 | 3.6 fold
B23 | 1.2 fold

Binder | fold change of affinity
B24 | 1.3 fold
B25 | 0 fold
B26 | 0 fold
B27 | 0 fold
B28 | 1.1 fold
B29 | 1.1 fold
B30 | 1.7 fold
B31 | 0 fold
B32 | 1.4 fold
B33 | 1.5 fold
B34 | 1 fold
B35 | 0.5 fold
B36 | 1.7 fold
B37 | 1.9 fold
B38 | 0.3 fold
B39 | 0.5 fold
B40 | 1.5 fold
B41 | 2.5 fold
B42 | 0.4 fold
B43 | 0.7 fold
B44 | 3.3 fold
B45 | 0.5 fold
